Measured values as given in patent US20070172470A1, “Phosphatase regulation of nucleic acid transcription” (The Regents of the University of California, priority 2003, published 2007).
Each block holds one molecule with its values, some of them ahead of it.

Key:
[1] = system: P19 mouse embryonic stem cells; assay: Neuronal differentiation of P19 cells; assay type: cell-based; conditions: clonal P19 line, retinoic acid, selective medium
Protocol: P19 cells, C, differentiated GFP expressing P19 cells; D, differentiated SCP1-expressing P19 cells; F, differentiated REST/NRSF-expressing P19 cells. Numbers of NLC per field are shown. *p=0.001 compared to WT 19 cells; **p=0.008 compared to WT P19 cell using student's t-test.
P19 stably expressing REST/NRSF.
These cell lines were maintained in α-MEM/10%FBS with […] G418. To induce neuronal differentiation, P19 cells were allowed to aggregate in bacterial grade petri-dishes (Fisher) at a seeding density of 1×10^5cells/ml in the presence of 1×10^−6M all-trans retinoic acid. After 3 days of aggregation, cells were dissociated into single cells by 0.05% trypsin-0.53 mM EDTA (Gibco). Trypsin was removed by centrifugation and the cells were plated in 6 cm tissue culture dishes (Nunc). at a density of 1×10^5 cells/cm^2 in Neurobasal medium/N2 supplement (Invitrogen) in the presence or absence of 1 μg/ml fibronectin (Invitrogen). The cells were cultured for 5 days after which average cell numbers/field were determined. Cells were either lysed to prepare total RNA (Rneasy kit, Qiagen) or stained with TuJ1 antibody (Babco).
For immunostaining, cells were fixed for 10 mins with 4% paraformaldehyde. TuJ1 antibody was used at 1:2000 and secondary antibody used was FITC-conjuagated anti-mouse (1:3000).

GST-CTDo = molecular target: T1, GST-CTDo (Homo sapiens, UniProt P24928); assay: CTD phosphatase assay with GST-CTDo (rCTDo) as substrate; assay type: biochemical
T1 construct: made in house
Protocol: (§1) FIGS. 2C and 2D show a CTD phosphatase assay of FCP1 and SCP1 on GST-CTDo and RNAP IIO prepared by MAPK2/ERK2. Increasing amounts of FCP1 or GST-SCP1 214 were assayed in the presence of 75 fmol GST-CTDo (lanes 1-6), 75 fmol RNAP IIO (lanes 7-12), or 75 fmol GST-CTDo and 75. fmol RNAP IIO (lanes 13-18). Both GST-CTDo and RNAP IIO substrates were prepared by the in vitro phosphorylation of CKII-labeled GST-CTDa or RNAP IIA by MAPK2/ERK2. All reactions were carried out in the presence of 7 pmol RAP74. CTD dephosphorylation of both GST-CTDo and RNAP IIO is shown by the increase in mobility of GST-CTDo to GST-CTDa and subunit IIo to IIa, respectively. The difference in the intensity of radiolabeled GST-CTDoand that of radiolabeled subunit IIo is not a reflection of a difference in the amount of substrates present, but of the higher efficiency with which CKII incorporates radiolabeled phosphates onto the most C-terminal serine of GST-CTDa compared to subunit. IIa.
Preparation and Purification of ^32P-RNAP IIO Isozymess and ^32P-GST-CTDo: Calf thymus RNAP IIA was purified by the method of Hodo and Blatti (30) with modifications as described by Kang and Dahmus (31). […]
CTD phosphatase assays utilizing RNAP IIO and GST-CTDo as substrate were performed as described previously (32) with minor modifications. […] Data were quantitatively analyzed by ImageQuant software.

RNAP IIO = molecular target: T2, RNAP IIO (Bos taurus, UniProt G3MZY8); assay: CTD phosphatase assay with RNAP IIO as substrate; assay type: biochemical, calf
T2 construct: Calf thymus RNAP IIA was purified; from tissue; host or cells: calf thymus
Protocol: as §1
Increasing amounts of GST-SCP1 214 were assayed in the presence of 3.7 fmol RNAP IIO prepared by CTDK1/CTDK2, TFIIH, P-TEFb, MAPK2/ERK2 and Cdc2 kinase. All reactions were carried out in-the presence of 7 pmol. RAP74. CTD dephosphorylation of RNAP IIO isozymes. by qSTSCP1 214 is shown by an increase in mobility of subunit IIo to that of IIa. The results are summarized in the graph showing the percent of RNAP IIO remaining as a function of increasing SCP1 concentrations.
Preparation and Purification of ^32P-RNAP IIO Isozymess and ^32P-GST-CTDo: Calf thymus RNAP IIA was purified by the method of Hodo and Blatti (30) with modifications as described by Kang and Dahmus (31). Specific isozymes of ^32p-labeled RNAP IIO were prepared by phosphorylation at the most C-terminal serine (CKII site) in the largest subunit of purified RNAP IIA with recombinant CKII and […], followed by CTD phosphorylation in the presence of 2 mM ATP with either purified CTDK1/CTDK2, TFIIH, P-TEFb, recombinant MAPK2/ERK2 or recombinant Cdc2 kinase. The RNAP IIO isozymes were individually purified over a DE53 column with a step elution of 500 mM KCl (28). Because only the most C-terminal serine is labeled with ^32p and lies outside. the consensus repeat, dephosphorylation by CTD phosphatase results in an electrophoretic mobility shift in SDS-PAGE of subunit IIo to the position of subunit IIa without the loss of label. Similarly, ^32P-labeled GST-CTDo was prepared from GST-CTDa by CKII followed by MAPK2/ERK2. GST-CTDo was purified over a glutathione-agarose column with a step elution of 15 mM glutathione.
CTD phosphatase assays utilizing RNAP IIO and GST-CTDo as substrate were performed as described previously (32) with minor modifications. Reactions were performed in 20 μl of CTD phosphatase buffer (50 mM Tris-HCl, pH 7.9, 10 mM MgCl2, 20% glycerol, 0.025% Tween 80, 0.1 mM EDTA, 5 mM DTT) in the presence of 20 mM KCl. Each reaction contained specified amounts of GST-CTDo and/or RNAP IIO and was carried out in the presence of 7 pmol RAP74. Reactions were initiated by the addition of FCP1 or SCP1 and incubated at 30° C. for 30 minutes. Assays were terminated by the addition of 5× Laemmli buffer, and RNAP II subunits and GST-CTD were resolved on a 5% SDS-PAGE gel. The gel images were developed by autoradiography and scanned by Molecular Dynamics Image Scanner Storm 860 in the phosphor screen mode. Data were quantitatively analyzed by ImageQuant software.

[2] = system: 28 aa CTD heptad repeat peptide with Ser 5 phosphate or Ser 2 phosphate; assay: CTD phosphopeptide phosphatase assay (malachite green); assay type: biochemical; conditions: 25 μM phosphopeptide, 60 mins at 37° C.
Protocol: The indicated amounts of. SCP1 were incubated with the phosphopeptide substrate and phosphate released was measured as described infra.
N-terminal biotinylated CTD phosphopeptides, comprised of 4 tandem repeats YSPTSPS and containing phosphoserine at position 2 or position 5, were synthesized (Alpha Diagnostics, San Antonio, Tex.). Phosphatase reaction mixtures (50 μl) containing 50 mM Tris-acetate, pH 5.5, 10 mM MgCl2, 0.5 mM DTT, 10% glycerol, 25 μM of phosphopeptide and wild type or mutant SCP1 were incubated for 60 mins at 37° C. The reactions were quenched by adding 0.5 ml of malachite green (Biomol). Phosphate release was measured at A620 and quantified relative to a phosphate standard curve.

T1 sequence (P24928 1593-1960 A1835T, one chain of several): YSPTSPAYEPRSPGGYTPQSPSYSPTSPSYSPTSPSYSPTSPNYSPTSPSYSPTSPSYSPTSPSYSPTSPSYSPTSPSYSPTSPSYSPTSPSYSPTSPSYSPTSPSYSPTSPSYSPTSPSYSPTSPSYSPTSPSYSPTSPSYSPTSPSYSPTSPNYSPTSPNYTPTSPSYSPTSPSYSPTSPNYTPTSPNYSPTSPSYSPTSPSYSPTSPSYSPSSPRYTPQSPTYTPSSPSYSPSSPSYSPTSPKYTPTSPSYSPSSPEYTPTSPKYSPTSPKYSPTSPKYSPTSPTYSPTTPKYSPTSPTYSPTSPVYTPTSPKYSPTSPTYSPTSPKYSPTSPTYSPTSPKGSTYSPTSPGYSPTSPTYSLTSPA

B1: REST/NRSF: RE-1 silencing transcription factor / Neuron-Restrictive Silencer Factor (protein, UniProt Q13127 1-1097, looked up)
RE1-silencing transcription …: MATQVMGQSSGGGGLFTSSGNIGMALPNDMYDLHDLSKAELAAPQLIMLANVALTGEVNGSCCDYLVGEERQMAELMPVGDNNFSDSEEGEGLEESADIKGEPHGLENMELRSLELSVVEPQPVFEASGAPDIYSSNKDLPPETPGAEDKGKSSKTKPFRCKPCQYEAESEEQFVHHIRVHSAKKFFVEESAEKQAKARESGSSTAEEGDFSKGPIRCDRCGYNTNRYDHYTAHLKHHTRAGDNERVYKCIICTYTTVSEYHWRKHLRNHFPRKVYTCGKCNYFSDRKNNYVQHVRTHTGERPYKCELCPYSSSQKTHLTRHMRTHSGEKPFKCDQCSYVASNQHEVTRHARQVHNGPKPLNCPHCDYKTADRSNFKKHVELHVNPRQFNCPVCDYAASKKCNLQYHFKSKHPTCPNKTMDVSKVKLKKTKKREADLPDNITNEKTEIEQTKIKGDVAGKKNEKSVKAEKRDVSKEKKPSNNVSVIQVTTRTRKSVTEVKEMDVHTGSNSEKFSKTKKSKRKLEVDSHSLHGPVNDEESSTKKKKKVESKSKNNSQEVPKGDSKVEENKKQNTCMKKSTKKKTLKNKSSKKSSKPPQKEPVEKGSAQMDPPQMGPAPTEAVQKGPVQVEPPPPMEHAQMEGAQIRPAPDEPVQMEVVQEGPAQKELLPPVEPAQMVGAQIVLAHMELPPPMETAQTEVAQMGPAPMEPAQMEVAQVESAPMQVVQKEPVQMELSPPMEVVQKEPVQIELSPPMEVVQKEPVKIELSPPIEVVQKEPVQMELSPPMGVVQKEPAQREPPPPREPPLHMEPISKKPPLRKDKKEKSNMQSERARKEQVLIEVGLVPVKDSWLLKESVSTEDLSPPSPPLPKENLREEASGDQKLLNTGEGNKEAPLQKVGAEEADESLPGLAANINESTHISSSGQNLNTPEGETLNGKHQTDSIVCEMKMDTDQNTRENLTGINSTVEEPVSPMLPPSAVEEREAVSKTALASPPATMAANESQEIDEDEGIHSHEGSDLSDNMSEGSDDSGLHGARPVPQESSRKNAKEALAVKAAKGDFVCIFCDRSFRKGKDYSKHLNRHLVNVYYLEEAAQGQE
effect on neuronal differentiation [1]: prevented neuronal differentiation

dephosphorylation of both RNAP IIO and GST-CTDo (GST-CTDo; substrates prepared by MAPK2/ERK2, 75 fmol each, 7 pmol RAP74): comparable efficiency
B2: GST-SCP1 214: GST fusion of the 214 aa spliced variant of SCP1, SEQ ID NO:8 (protein)
chain: MMGRPCLLTAGRPCLWRRMAPSLRQTPVQYLLPEAKAQDSDKICVVIDLDETLVHSSFKPVNNADFIIPVEIDGVVHQVYVLKRPHVDEFLQRMGELFECVLFTASLAKYADPVADLLDKWGAFRARLFRESCVFHRGNYVKDLSRLGRDLRRVLILDNSPASYVFHPDNAVPVASWFDNMSDTELHDLLPFFEQLSRVDDVYSVLRQPRPGS
modifications: left off: a dimerising Fc or GST

B3: SCP2: small CTD phosphatase-2, SEQ ID NO:4 (protein, listed as Homo sapiens)
chain: MEHGSIITQARREDALVLTKQGLVSKSSPKKPRGRNIFKALFCCFRAQHVGQSSSSTELAAYKEEANTIAKSDLLQCLQYQFYQIPGTCLLPEVTEEDQGRICVVIDLDETLVHSSFKPINNADFIVPIEIEGTTHQVYVLKRPYVDEFLRRMGELFECVLFTASLAKYADPVTDLLDRCGVFRARLFRESCVFHQGCYVKDLSRLGRDLRKTLILDNSPASYIFHPENAVPVQSWFDDMADTELLNLIPIFEELSGAEDVYTSLGAAAGPLACPASKRRPSQ
CTD phosphatase activity when RNAP IIO is utilized as substrate (RNAP IIO; compared with SCP1): comparable CTD phosphatase activity

concentration without dephosphorylation of rCTDo, relative to that required to dephosphorylate RNAP IIO (GST-CTDo): > 100 times | dephosphorylation of Ser 5 versus Ser 2 phosphopeptide [2]: did not act on either phosphopeptide | dephosphorylation of RNAP IIO prepared with Cdc2 kinase (RNAP IIO; 3.7 fmol RNAP IIO, 7 pmol RAP74): efficiently dephosphorylates
B4: FCP1: recombinant CTD phosphatase FCP1, class C phosphatase with BRCT domain (protein)
chain: MEVPAAGRVPAEGAPTAAVAEVRCPGPAPLRLLEWRVAAGAAVRIGSVLAVFEAAASAQSSGASQSRVASGGCVRPARPERRLRSERAGVVRELCAQPGQVVAPGAVLVRLEGCSHPVVMKGLCAECGQDLTQLQSKNGKQQVPLSTATVSMVHSVPELMVSSEQAEQLGREDQQRLHRNRKLVLMVDLDQTLIHTTEQHCQQMSNKGIFHFQLGRGEPMLHTRLRPHCKDFLEKIAKLYELHVFTFGSRLYAHTIAGFLDPEKKLFSHRILSRDECIDPFSKTGNLRNLFPCGDSMVCIIDDREDVWKFAPNLITVKKYVYFQGTGDMNAPPGSRESQTRKKVNHSRGTEVSEPSPPVRDPEGVTQAPGVEPSNGLEKPARELNGSEAATPRDSPRPGKPDERDIWPPAQAPTSSQELAGAPEPQGSCAQGGRVAPGQRPAQGATGTDLDFDLSSDSESSSESEGTKSSSSASDGESEGKRGRQKPKAAPEGAGALAQGSSLEPGRPAAPSLPGEAEPGAHAPDKEPELGGQEEGERDGLCGLGNGCADRKEAETESQNSELSGVTAGESLDQSMEEEEEEDTDEDDHLIYLEEILVRVHTDYYAKYDRYLNKEIEEAPDIRKIVPELKSKVLADVAIIFSGLHPTNFPIEKTREHYHATALGAKILTRLVLSPDAPDRATHLIAARAGTEKVLQAQECGHLHVVNPDWLWSCLERWDKVEEQLFPLRDDHTKAQRENSPAAFPDREGVPPTALFHPMPVLPKAQPGPEVRIYDSNTGKLIRTGARGPPAPSSSLPIRQEPSSFRAVPPPQPQMFGEELPDAQDGEQPGPSRRKRQPSMSETMPLYTLCKEDLESMDKEVDDILGEGSDDSDSEKRRPEEQEEEPQPRKPGTRRERTLGAPASSERSAAGGRGPRGHKRKLNEEDAASESSRESSNEDEGSSSEADEMAKALEAELNDLM
